This data set relates to MS2 coat protein. The data set is described as follows: apparent KD of MS2 coat protein; designed switch direction (-1 OFF switch, 1 ON switch): -1; higher = weaker reporter binding. In outline:
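RNA switches sharing common flanks were transcribed by stalled E. coli RNA polymerase on Illumina chips. A doubling series of SNAP-549-labelled MS2 coat protein, from 0.7 or 1.5 nM to 3 µM, was applied in Tris-HCl pH 7.5 buffer with KCl, MgCl2, BSA, DTT, tRNA and Tween-20. Each step lasted 0.8–1.5 h at the bottom of the series and 10–20 min at the top. Normalised cluster fluorescence was curve-fitted, giving apparent KD as the per-design median over clusters.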

Where [1] appears, read: input ligand: microRNA oligo, concentration not stated.
Setting [2] is: Eterna round: R95, input ligand: FMN 200 uM.
The mark [3] stands for this setting: Eterna round: R95, input ligand: microRNA oligo, concentration not stated.
[4] abbreviates: Eterna round: R95, input ligand: none.

As to “GACCUAUAGGUAGGAUAUCAUUGCGAUUAGCUAUGAGAAGGACCACAUGAGGAUCACCCAUGUCCUCCAAUUAACCAUUUGGUC [Fiskers ExNg1 - 4] (Eterna round: R96, puzzle: Exclusion NG 1)”, the “apparent KD of MS2 coat protein” value is, setting by setting: (input ligand: FMN 200 uM) 0.239 µM; under setting [1], 0.0696 µM; (input ligand: none) 0.0867 µM.

Regarding “GACCUCACUGUAGGAUAUGACCGAUCCAGAGGAUCAGAAGGACAUGAGGAUCACCCAUGUGCGUGGAGGGAACGUAAGAAACAA [Eternabot solution 2] (Eterna round: R96, puzzle: Exclusion NG 1)”, the “apparent KD of MS2 coat protein” value is, setting by setting: (input ligand: FMN 200 uM) 0.323 µM; under setting [1], 0.0294 µM; (input ligand: none) 0.0529 µM.

Take “GACCUCAGUCAGGAUAUAGAUAGCGAUAGCGAAUUAGAAGGGACCACAUGAGGAUCACCCAUGUUAGUAUCAUU [Eternabot (L2) Solution 10] (Eterna round: R97, puzzle: Exclusion 6)”: the “apparent KD of MS2 coat protein” value runs as follows: (input ligand: FMN 200 uM) 0.0389 µM; (input ligand: none) 0.0342 µM.

As to “GACCUCCCUGUAAGGAUAUCCAUGCAUCAAAGCAAGGAGAAGGUACAUGAGGAUCACCCAUGUCACCCGCGUUA (Eterna round: R97, puzzle: Brourd's mod of Exclusion 4)”, the “apparent KD of MS2 coat protein” value runs as follows: (input ligand: FMN 200 uM) 0.0231 µM; (input ligand: none) 0.0154 µM.

As for “GACCUCCCUGUAAGGAUAUCCAUGCAUCAAAGCAUGGAGAAGGUACAUGAGGAUCACCCAUGUCACCCGCGUUA (Eterna round: R97, puzzle: Brourd's mod of Exclusion 4)”, the “apparent KD of MS2 coat protein” value came to 0.0207 µM (input ligand: FMN 200 uM) and 0.015 µM (input ligand: none).

For the sequence “GACUCACAUGAGGAUCACCCAUGUUAGGAUAUAACCUCAUCAACAACGAUUUGGGAGGUUAGAAGGGAUGAUGG [Eternabot (L1) Solution 80] (Eterna round: R97, puzzle: Exclusion 1)”, the “apparent KD of MS2 coat protein” value reads like this: (input ligand: FMN 200 uM) 0.11 µM; (input ligand: none) 0.089 µM.

Consider “GAGAAACAUGAGGAUCACCCAUGUGAGGAUAUGAAAAAGAAAAGAAAAGAAAGAAGAAUCAGAAGGCACAAAGC [salish99-ex1_r3_091] (puzzle: Exclusion 1)”, for which the “apparent KD of MS2 coat protein” value by setting is: under setting [2], 0.0231 µM; under setting [3], 0.0324 µM; under setting [4], 0.03 µM.

For the sequence “GAGAACUGAGGAUAUACAUGAGGAUCACCCAUGUUAAGAAGAAAGUAUAAAAGAUUAUGUAGAAGGCAGAGAGA [JR_Ex3_Sub068] (Eterna round: R97, puzzle: Exclusion 3)”, the “apparent KD of MS2 coat protein” value (input ligand: FMN 200 uM) came to 0.0298 µM and the “apparent KD of MS2 coat protein” value (input ligand: none) was determined as 0.0333 µM.

With “GAGAAGGUAGGAUAUACGAAUAAAUAGGGUAGUAAUAAUACACAUGAGGAUCACCCAUGUAGAAGGACCAAUAG [Mat - Exclusion 2 - Mod of my Tesla design - D40] (puzzle: Exclusion 2)”, the “apparent KD of MS2 coat protein” value amounted to 0.0425 µM under setting [2], 0.0208 µM under setting [3] and 0.0249 µM under setting [4].

“GAGGAACAUGAGGAUCACCCAUGUGAGGAUAUGCAUAGCGAGGUAGUAGAAGUUGAAUGCAGAAGGUACACGGA [JR_Exclu1_Sub076] (puzzle: Exclusion 1)”: the “apparent KD of MS2 coat protein” value under setting [3] is 0.0275 µM.

For the sequence “GAGGAACAUGAGGAUCACCCAUGUGAGGAUAUGCAUAGUGAGGUAGUAGACGUUGAAUGCAGAAGGUACACUGA [JR_Exclu1_Sub078] (puzzle: Exclusion 1)”, the “apparent KD of MS2 coat protein” value under setting [3] came to 0.0357 µM.

With “GAGUCACAUGAGGAUCACCCAUGUGAGGAUAUCAUGCUUCGUAGUAAACUACGAAGUGUGAGAAGGCACAAUGG [Omei Ex1 C8] (Eterna round: R97, puzzle: Exclusion 1)”, the “apparent KD of MS2 coat protein” value by setting is: (input ligand: FMN 200 uM) 0.126 µM; (input ligand: none) 0.0686 µM.

As to “GAGUCCUUGGUGAGGAUAUGGCGAGGAGCACUUGUCCAGAAGGCACAUGAGGAUCACCCAUGUUCUAGUAAUUG [Eternabot (L2) Solution 75] (Eterna round: R97, puzzle: Brourd's mod of Exclusion 4)”, the “apparent KD of MS2 coat protein” value reads like this: (input ligand: FMN 200 uM) 0.0772 µM; (input ligand: none) 0.0302 µM.

Regarding “GAGUGACAUGAGGAUCACCCAUGUGAGGAUAUCGGACGGACCAAAUUAACAACAACCGCGAGAAGGCACAUCGG [Exclusion 1 V20] (puzzle: Exclusion 1)”, the “apparent KD of MS2 coat protein” value under setting [3] was determined as 0.112 µM.

As to “GAGUGACAUGAGGAUCACCCAUGUGAGGAUAUCGGACGGACCAAAUUAACAACCACCGCGAGAAGGCACAUCGG [Exclusion 1 V21] (puzzle: Exclusion 1)”, the “apparent KD of MS2 coat protein” value is, setting by setting: under setting [2], 0.0584 µM; under setting [3], 0.0989 µM; under setting [4], 0.107 µM.

For “GAGUGGUGAGGAUAUACAUGAGGAUCACCCAUGUGCUUCAGCUAGGAGACUAGCAUUGGUAGAAGGCAUUACUC [Mod of lroppy 8 - Jieux - Exclusion 3] (Eterna round: R97, puzzle: Exclusion 3)”, the “apparent KD of MS2 coat protein” value (input ligand: FMN 200 uM) was 0.102 µM and the “apparent KD of MS2 coat protein” value (input ligand: none) is 0.0336 µM.

Take “GAGUUAACAUGAGGAAUAUACAUGAGGAUCACCCAUGUUAACAAAACUUUUGCUCGUCUUAUAACAACAAUUAACUC [Alarm 2 - Jieux - Sensor, turn-off variant 1] (Eterna round: R97, puzzle: Sensor, turn-off variant 1)”: the “apparent KD of MS2 coat protein” value stood at 0.347 µM (input ligand: FMN 200 uM) and 0.133 µM (input ligand: none).

For the sequence “GAUACACAUGAGGAUCACCCAUGUGAGGAUAUGAUACUAUGUACUUCGGUACAUAGUAUCAGAAGGCACAUUGA [Ex1-3: 44] (puzzle: Exclusion 1)”, under setting [3], the “apparent KD of MS2 coat protein” value came to 0.0612 µM.

Regarding “GAUACCCAAGUCAGGAUAUCGGGAUACGAAAGUCACGAGAAGGGACAUGAGGAUCACCCAUGUAAAUAAAUAAA [Arege] (puzzle: Brourd's mod of Exclusion 4)”, the “apparent KD of MS2 coat protein” value came out at 0.0627 µM under setting [2], 0.0311 µM under setting [3] and 0.0332 µM under setting [4].

Take “GAUAGACAUGAGGAUCACCCAUGUGAGGAUAUGCGUACGUUGUCAGUAGGCGACGUGCGCAGAAGGCGCAAGUU [Mat - Mod of JL D91] (puzzle: Exclusion 1)”: under setting [3], the “apparent KD of MS2 coat protein” value came out at 0.0618 µM.

For “GAUAGGACGUGGUCAGGUAACAUGAGGAUCACCCAUGUAGGUCUAGGAACAAGCUUUUUGAAAGCUCGUCUUAUAAA [JR_SV3TOV1_Sub056] (puzzle: Sensor v3, turn-off variant 1)”, the “apparent KD of MS2 coat protein” value runs as follows: under setting [2], 0.0174 µM; under setting [3], 0.0189 µM; under setting [4], 0.0212 µM.

In the case of “GAUAUGUAAGGAUAUCUAGAAACGAGCGCAGGCUCAAGAAAAGAGAAGGUACAUGAGGAUCACCCAUGUUCCUG [EX4 A.13] (Eterna round: R97, puzzle: Exclusion 4)”, the “apparent KD of MS2 coat protein” value worked out at 0.0211 µM (input ligand: FMN 200 uM) and 0.0179 µM (input ligand: none).

For “GAUCAACAUGAGGAUCACCCAUGUGAGGAUAUGAUACUAUGUACUUCGGUACAUAGUAUCAGAAGGCAUAUUGA [Ex1-3: 41] (puzzle: Exclusion 1)”, the “apparent KD of MS2 coat protein” value under setting [3] is 0.0507 µM.

Turning to “GAUCAGCUUGUGAGGAUAUCCGGGCAUAAAGGCUAGGAGAAGGUACAUGAGGAUCACCCAUGUAGAGUCCUGGG [Bisoraxe] (puzzle: Brourd's mod of Exclusion 4)”, the “apparent KD of MS2 coat protein” value under setting [3] is 0.0412 µM.

For “GAUCAUGCAGGAUAUACAUGGAACAUGAAAUCAUGAAUUUCACAUGAGGAUCACCCAUGUAGAAGGGCAUGAUC [Omei Ex2 A15] (Eterna round: R97, puzzle: Exclusion 2)”, the “apparent KD of MS2 coat protein” value by setting is: (input ligand: FMN 200 uM) 0.0231 µM; (input ligand: none) 0.0249 µM.
